Literature values as cited in paper PMC12208613.
Where “and” joins values, the source holds several entries; their conditions need not be identical. Equal values may be shown once.

Molecular target: CD7 (Homo sapiens) (UniProt P09564)
Sequence (P09564 26-180): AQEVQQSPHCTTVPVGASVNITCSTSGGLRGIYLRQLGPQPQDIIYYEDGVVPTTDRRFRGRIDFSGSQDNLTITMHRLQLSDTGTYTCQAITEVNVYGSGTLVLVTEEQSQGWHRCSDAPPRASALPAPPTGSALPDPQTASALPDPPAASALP

Chain of K12 (Q8WVN6 29-145): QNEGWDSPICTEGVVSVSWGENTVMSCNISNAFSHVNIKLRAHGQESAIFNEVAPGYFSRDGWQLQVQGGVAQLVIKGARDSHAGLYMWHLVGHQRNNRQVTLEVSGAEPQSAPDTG

For K12 (from UniProt Q8WVN6), the Kd is given as 0.01 µM and 0.038 µM.
